Molecular target: tubulin (bovine, Cytoskeleton) (bovine) (UniProt Q6B856)

reduction of the extent of tubulin polymerization at 0.5, 1 and 10 µM Capzb2 (8%, 16%, 35%; none at 0.1 µM): 35%
Substance: GST-tagged full-length Capzb2 (1–271) (from UniProt P47757-2 1-272) (natural protein)

— publication PMC2748697
